These results are taken from US20230212266A1 (FRED HUTCHINSON CANCER CENTER, published 2023).

Where two headings read alike, the source gives them in different places.

Holding throughout (assay): BLI, mAb on anti-human Fc probe, antigen in solution
Experiment [1] deals with T1, SARS-CoV-2 receptor binding domain (RBD) (SARS-CoV-2, UniProt P0DTC2 319-591).
Experiment [2] concerns the target T1, SARS-CoV-2 receptor binding domain (RBD). The source holds these as a separate data set.
Experiment [3] has the same target. The source holds these as a separate data set.
For experiment [4] the target is unchanged. This is another data set of the same source.
The target is the same in experiment [5]. The source holds these as a separate data set.
For experiment [6] the target is unchanged. The source holds these as a separate data set.
For experiment [7] the target is unchanged. The source holds these as a separate data set.
Experiment [8] shares this target. This is another data set of the same source.
Experiment [9] shares this target. This is another data set of the same source.
Experiment [10] shares this target. The source holds these as a separate data set.
Experiment [11] has the same target. This is another data set of the same source.
For experiment [12] the target is unchanged. The source holds these as a separate data set.
Experiment [13] shares this target. The source holds these as a separate data set.
Experiment [14] has the same target. The source holds these as a separate data set.
Experiment [15] shares this target. This is another data set of the same source.
Experiment [16] has the same target. This is another data set of the same source.

B1: CV2-10 (antibody, V domains shown)
VH: QVQLQESGPGLVKPSGTLSLTCAVSGGSISSSTWWSWVRQPPGKGLEWIGEIYHSGSTNYNPSLKSRVTISVDKSKNQFSLKLSSVTAADTAVYYCARSASNYFGYYYYGMDVWGQGTTVTVSS
VL: EIVLTQSPATLSLSPGERATLSCRASQSVSSQLAWYQQKPGQAPRLLISDASNRATGIPARFSGSGSGTDFTLTISSLEPEDFAVYYCQQRSNWPRTFGQGTKVEIK
notes: expressed as IgG
For the molecule B1, the binding result in experiment [1] is given as “no binding”.

B2: CV2-14 (antibody, V domains shown)
VH: QVQLVESGGGVVQPGRSLRLSCAASGFTFSSFALHWVRQAPGKGLEWVAVVSYDGSNKYYADSVKGRFTISRDNSKNTLYLQMNSLRAEDTAAYYCARSMGGNYADYFDYWGQGTLVTVSS
VL: EIVLTQSPATLSLSPGERATLSCRASQSVTNYLAWYQQKPGQAPRLLIYDASNRATGIPARFSGSGSGTDFTLTISSLEPEDFAVYYCQQRSNWPNTFGQGTRLEIK
notes: expressed as IgG
On to B2, for which the binding result in experiment [2] is “no binding”.

B3: CV2-9 (antibody, V domains shown)
VH: EVQLVESGGGLIQPGGSLRLSCAASGFTVSSNYMTWVRQAPGKGLEWVSIIYSGGSTYYADSVKGRFTISRDNSKNTLYLQMNSLRAEDTAVYYCAAGYYDSINWGQGTLVTVPS
VL: DIQMTQSPSTLSASVGDRVTITCRASQSISTWLAWYQQKPGKAPKLLIYKASNLESGVPSRFSGSGSGTEFTLTISSLQPDDFATYYCQQYYTYSWTFGQGTKLEIKR
notes: expressed as IgG
As to B3, the binding result in [3] was “no binding”.

B4: CV2-21 (antibody, V domains shown)
VH: QVQLVQSGAEVKKPGASVKVSCKAFGYTFTKNGINWVRQAPGQGLEWMGWISPNNGYTNFAQKFQGRATMTSDTSTSTAYMELRSLRSDDTAVYYCARVRVDYDSSGYDAYYYHLDVWGQGTTVTVSS
VL: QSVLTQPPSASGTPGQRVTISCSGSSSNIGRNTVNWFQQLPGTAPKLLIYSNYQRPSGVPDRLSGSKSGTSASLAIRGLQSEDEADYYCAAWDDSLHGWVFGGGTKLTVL
notes: expressed as IgG
B4: the binding result in experiment [4] is listed as “no binding”.

B5: CV8 (antibody, V domains shown)
VH: QVQLVQSGAEVKKPGASVKVSCKASGYTFTSYGISWVRQAPGQGLEWMGWISAYNGNTNYAQKLQGRVTMTTDTSTSTAYMELRSLRSDDTAVYYCARLVPTWASYYDFWSGYPGGYGMDVWGQGTTVTVSS
VL: not shown
notes: expressed as IgG
On to B5, for which the binding result in [5] is “no binding”.

B6: CV2-6 (antibody, V domains shown)
VH: QVQLVESGGGVVQPGRSLRLSCAASGFTFSIYAIHWVRQAPGKGLEWVAVISYDGINKYYADAVKGRFTISRDNSKNTLFLQMNSLRTEDTAVYYCARAMGGNYFHAFDIWGQGTMVTVSS
VL: EIVLTQSPGTLSLSPGERATLSCRASQSVSSSYLAWYQRKPGQAPRLLIYGASNRATGIPDRFSGSGSGTDFTLTISRLEPEDFAVFYCQQYGSSPWTFGQGTKVEIK
notes: expressed as IgG
Regarding B6, the binding result in experiment [6] is “no binding”.

B7: CV2-8 (antibody, V domains shown)
VH: QVQLVESGGGVVQPGRSLRLSCGASGFIFSSYAMHWVRQAPGKGLEWVAVISYDGNNKYYADSVKGRFTISRDNSKNTLYLQMNSLRAEDTAVYYCARPYSGTYFSAFDIWGQGTMVTVSS
VL: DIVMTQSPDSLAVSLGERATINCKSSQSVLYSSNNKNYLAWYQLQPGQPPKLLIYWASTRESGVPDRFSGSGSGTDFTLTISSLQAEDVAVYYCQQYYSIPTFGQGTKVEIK
notes: expressed as IgG
For the molecule B7, the binding result in experiment [7] was “no binding”.

B8: CV2-13 (antibody, V domains shown)
VH: EVQLVESGGGLVQPGGSLRLSCAASGFTFSSYEMNWVRQAPGKGLEWVSYISSSGSTIYYADSVKGRFTISRDNAKNSLYLEMNSLRAEDTAVYYCASTSDSGSYYIHWYFDLWGRGTLVTVSS
VL: QSALTQPASVSGSPGQSITISCTGTSSDVGSYNLVSWYQQHPGKAPKLMIYDVSKRPSGVSNRFSGSKSGNTASLTISGLQAEDEADYYCCSHAGSSTSYIFGTGTKVTVL
notes: expressed as IgG
As to B8, the binding result in [8] is “no binding”.

B9: CV2-17 (antibody, V domains shown)
VH: EVQLVESGGGLVQPGGSLRLSCSASGFTFSSYAMHWVRQAPGKGLEYVSTISTNGGSTYYADSVKGRFTISRDNSKNTLYLQMSSLRAEDTAVYYCVLGYCSSTSCQHFDYWGQGTLVTVSS
VL: QSALTQPASVSGSPGQSITISCTGTSSDVGAYNYVSWYQQHPGKAPKLMIYEVSNRPSGVSNRFSGSKSGNTASLTISGLQAEDEADYYCSSYTSSSTPYVFGTGTKVTVL
notes: expressed as IgG
Regarding B9, the binding result in experiment [9] is recorded as “no binding”.

B10: CV2-12 (antibody, V domains shown)
VH: QVQLVESGGGVVQPGRSLRLSCAASGFTFSSYGIHWVRQAPGKGLEWVAVISYDGINKYYADSVKGRFTISRDNSKNTLYLHMNSLRAEDTAVYYCARPNSGSYHSYFDYWGQGTLVTVSS
VL: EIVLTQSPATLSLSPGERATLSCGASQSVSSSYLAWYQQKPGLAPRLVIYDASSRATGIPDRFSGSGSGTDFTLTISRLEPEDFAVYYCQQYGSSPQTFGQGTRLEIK
notes: expressed as IgG
On to B10, for which, in [10], the binding result is given as “no binding”.

B11: CV2-19 (antibody, V domains shown)
VH: QVQLVESGGGVVQPGRSLRLSCAASGFTFSSYAMHWVRQAPGKGLEWVAIISYDGINKYYADSVKGRFTISRDNSKNTLYLQMNSLRVEDTAVYYCARPGGGSYYGPFDYWGQGTLVTVSS
VL: QSALTQPASVSGSPGQSITISCTGTSSDVGSYNYVSWYQQHPGKAPKLMIYEVSNRPSGVSNRFSGSKSGNTASLTLSGLQAEDEADYYCSSYTSSSTLYVFGTGTKVTVL
notes: expressed as IgG
Consider B11, for which, in [11], the binding result is given as “no binding”.

B12: CV2-11 (antibody, V domains shown)
VH: EVQLVESGGGLVKPGGSLRLSCAASGFTFSSYSMNWVRQAPGKGLEWVSSISSSRSYIYYADSVKGRFTISRDNAKNSLYLQMNSLRAEDTAVYYCASNPAADPNTYYYYGMDVWGQGTTVTVSS
VL: QPVLTQPPSASASLGASVTLTCTLSSGYSNYKVDWYQQRPGKGPRFVMRVGTGGIVGSKGDGIPDRFSVLGSGLNRYLTIKNIQEEDESDYHCGADHGSGSNFVGVFGGGTKLTVL
notes: expressed as IgG
As for B12, the binding result in experiment [12] is “no binding”.

B13: CV2-18 (antibody, V domains shown)
VH: QVQLVQSGAEVKKPGSSVKVSCKASGGTFSSYAISWVRQAPGQGLEWMGGIIPIFGTANYAQKFQGRVTITADESTSTAYMELSSLRSEDTAVYYCARVGAYDSSGYYQDLWGRGTLVTVSS
VL: EIVLTQSPATLSLSPGERATLSCRASQSVSSYLAWYQQKPGQAPRLLIYDASNRATGIPARFSGSGSGTDFTLTISSLEPEDFAVYYCQQRSNWPPVITFGQGTRLEIK
notes: expressed as IgG
As to B13, the binding result in [13] is given as “no binding”.

B14: CV2-16 (antibody, V domains shown)
VH: QVQLVQSGAEVKKPGSSVKVSCKASGGTFSSFAFIWVRQAPGQGLEWMGGIIPIFGTAKYTQKFQGRVTITADESTSTAYMELSSLRSEDTAVYYCARVSYYDSSGFYTDYWGQGTLVTVSS
VL: DIVMTQSPATLSLSPGERATLSCRASQSVSSFLAWYQQKPGQAPRLLIYDASNRATGIPARFSGSGSGTDFTLTISSLEPEDFAVYYCQQRSNWPPEYTFGQGTKLEIK
notes: expressed as IgG
Regarding B14, the binding result in experiment [14] is “no binding”.

B15: CV2-15 (antibody, V domains shown)
VH: QVQLVQSGAEVKKPGSSVKVSCKTSGGIFSSYAISWVRQAPGQGLEWMGGIIPIFGTANYAQKFQGRVTITADESTSTAYMELSSLRSEDTAVYYCASYSGFDDYGHYRNYWGQGTLVTVSS
VL: DIVMTQTPATLSLSPGERATLSCRASQSVSRYLAWYQQKPGQAPRLLIYDASNRATGIPARFSGSGSGTDFTLTISSLEPEDFAVYYCQQRYNWPPELTFGGGTKVEIK
notes: expressed as IgG
For the molecule B15, the binding result in [15] is on record as “no binding”.

B16: CV2-5 (antibody, V domains shown)
VH: QVQLVQSGAEVKKPGSSVKVSCKASGGTFSSYAISWVRQAPGQGLEWMGGIIPIFGTTNNAQKFQGRVTLTADESTSAAYMELSSLRSEDTAVYYCARIEPYASTGYTFDYWGQGTLVTVSS
VL: EIVLTQSPATLSLSPGERATLSCRASQSVSSFLAWYQQKPGQAPRLLIYDASNRATGIPARFSGSGSGTDFTLTISSLEPEDFAVYYCQQRSNWPPRITFGQGTRLEIK
notes: expressed as IgG
Take B16: the binding result in experiment [16] is given as “no binding”.
